In the nanobody polyreactivity screen of Harvey et al. (2022):

Assay: yeast display, Sf9 membrane polyspecificity reagent, FACS + sequencing; frameworks hold sequencing errors
Method in brief: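 Galactose induction of a Saccharomyces cerevisiae BJ5465 synthetic nanobody display library ran 36–48 hours. The cells were then stained for 1 hour at 4 °C with 10% biotinylated, detergent-solubilized Sf9 membrane reagent, pulled down on streptavidin microbeads and FACS-sorted into low and high (top ~1%) gates on expression and reagent-binding fluorescence. Labels for polyreactivity follow the gate of origin.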

QVQLVESGGGLVQAGGSLRLSCAASVSTFRWYAMGWYRQAPGKERELVAAISWSGSTTYYADSVKGRFTISRDNAKNTVYLQMNSLKPEDTAVYYCAAEVVFFGWNYDYWGQGTQVTVSS
polyreactivity (PSR sort gate): high polyreactivity

QVQLVESGGGLVQAGGSLRLSCAASGSIFPGNTMGWYRQAPGKERELVAGIDKNGGRTYYADSVKGRFTISRDNAKNTVYLQMNSLKPEDTAVYYCAADTWVFRRAFWTKYEYWGQGTQVTVSS
polyreactivity (PSR sort gate): low polyreactivity

QVQLVESGGGLVQAGGSLRLSCAASGSIIKRNAMGWYRQAPGKERELVASISSGGSTKYADSVKGRFTISRDNAKNTVYLQKNSLKPEDTAVSYCAKRSSQTRRAYDYGGQGTQVTVSS
polyreactivity (PSR sort gate): low polyreactivity

QVQLVESGGGLVQAGGSLRLSCAASGYIFGYNAMGWYRPAPGKERELVATITWRGGSTYYADSVKGRFTISRDNAKNTVYLQMNSLKPEDTAVYYCAAVRWVRYRTSAYEYWGQGTQVTVSS
polyreactivity (PSR sort gate): high polyreactivity

QVQLVESGGGLVQAGGSLRLSCAASGYTFKTYPMGSYRQAPGKERELVAAISGSGGSTYYADSVKVRFTISRDNAKNTVYLQMNSLNPEDTAVYYCNASPTTTPNFWRYDYWGQGTQVTVSS
polyreactivity (PSR sort gate): high polyreactivity

QVQLVESGGGLVQAGGSLRLSCAASGFIFAEYAMGWYRQAPGKERELVAAITSGGSTSYADSVKGRFTISRDNAKNTVYLQMNSLKPEDTAVYYCAATWYYHYNDWKHWYEYGYWGQGTQVTVSS
polyreactivity (PSR sort gate): low polyreactivity

QVQLVESGGGLVQAGGSLRLSCAASGSIFRYYAMGWYRQAPGKERELVAAIRWSGGSTYYADSVKGRFTISRDNAKNTVYLQMNSLKPEDTAVYYCAARVGYRGSRQYSSYTLVDYWGQGTQVTVSS
polyreactivity (PSR sort gate): high polyreactivity

QVQLVESGGGLVQAGGSLSLSCAASGFILDFNSLGWYRQAPGKERELVAAISISGVSTYYADSVKGRFTISRDNAKNTVYLQMHSLKPEDTAVYYGAAAQVAAVYWRPGGYDYWGQGTQVTVSS
polyreactivity (PSR sort gate): low polyreactivity

QVQLVESGGGLVQAGGSLRLSCAASGSIFYHYAMGWYRQAPGKERELVAAISRSGGRTYYADSVKGRFTISRDNAKNTVYLQMNSLKPEDTAVYYCAAGTSWPWYQRDYWGQGTQVTVSS
polyreactivity (PSR sort gate): low polyreactivity

QVQLVESGGGLVQAGGSLRLSCAASGRTFYNNAMGWYRQAPGKERELVAAISWSGGSTFYADSVKGRFTISRDNAKKTVYLQMNSLKPEDTAVYYCAALGRPYGSDYWGQGTQVTVSS
polyreactivity (PSR sort gate): high polyreactivity

QVQLVESGGGLVQAGGSLRFICAASGRIFRRYLMGWYRQAPGKERELVARFRIRDSNTYYADSVKGRFTISRDNAKNTVYLQMNSLKPEDTAVYNCAVVANYVYSKYDYWGQGTQVTVSS
polyreactivity (PSR sort gate): high polyreactivity

QVQLVESGGGLVQAGGSLRLSCAASGSNIGWNTMGWYRQAPGKERELVAAITSGGRTYYADSVKGRFTISRDNAKNTVYLQINSLKPEDTAVYYCKAVVRHTYRRFDYWGQGTQVTVSS
polyreactivity (PSR sort gate): high polyreactivity

QVQLVESGGGLVQAGGSLRLSCAASGLIFDLYAMGWYRQAPGKERELVAAITWSGGSTYYADSVKGRFTISRDNAKNTVYLQMNSLKPEDTAVYYCAAETHLWYDFDYWGQGTQVTVSS
polyreactivity (PSR sort gate): high polyreactivity

QVQLVESGGGLVQAGGSLRLSCAASGSTVEYNAMGGYRPATGKERELVAAITSGGSTTYADSVKGRFTISRDNAKNTVYLQMNSLKPEDTAVYYCAAVGRRVSAWYYYWGQGTQVTVSS
polyreactivity (PSR sort gate): high polyreactivity

HVQLVESGGGLVQAGGSLRLSCAASGSTFTYYAMGWYRQAPGKERELVAAITGSDGRTYYADSVKGRFTISRDNAKKTVYLEMNSLKPEDTAVYYCATDVPIREIDEFGYWGQGTQVTVSS
polyreactivity (PSR sort gate): low polyreactivity

QVQLVESGAGLVQAGGSLRLSCAANTKGSYRQAPGKETELVAAINTGSSTYYADSVKGRFTISRDNAKNTVYLQMNSLKPEDTSVYYCNASYPQYLEYRTRQYNYWVQGTQVTVSS
polyreactivity (PSR sort gate): low polyreactivity

QVQLVESGGGLVQAGGSLRLSCAASGRTFNVYAMGWYRQAPGKERELVAAISKSGGSTYYADSVKGRFTISRDNAKNTVYLQMTSLKPEDTAVYYCNRYRFVRQVRGGGLPYDYWGQGTQVTVSS
polyreactivity (PSR sort gate): high polyreactivity

QVQLVESVGGLVQAGGSLRLSCAASGLMFWYYTMGWYRQAPGKERELVAAIRSGGSTNYADSVKGRFTISRDNAKNTVYLQMNSLKPEDTAVYYCAARKWHSAYDYWGQGTQVTVSS
polyreactivity (PSR sort gate): high polyreactivity

QVQLVESGACLVQAGGSLRLSCAASGSIFGFYAMGWYRQAPGQERELVAGISYGDSSTYYADSVKGRFTISRDNAKNTVYLQMNSLKPEDTAVYYCAAGHRQKYNWGRYDYWGQGTQVTVSS
polyreactivity (PSR sort gate): low polyreactivity

QVQLVESGGGLVQAGGSLRLSCAASGSIFWSNAMGWYRQEPVKEREMVARISTSGGRTYYADSVKGRFTISRDNAKNTVYLQMNSLKPEDTAVYYCADDPYRWYYSTFYYWGQGTQVTVSS
polyreactivity (PSR sort gate): high polyreactivity

QVQLVESGGGLVQAGGSLRLSCAASGSTFFLYAMGWYRQAPGKERELVAAITYTDGDTYYADSVKGRFTISRDNAKNTVYLQMNSLKPEDTAVFYCNAGGDEPVYGSGYDYWGQGTQVTVSS
polyreactivity (PSR sort gate): low polyreactivity

QVQLVESGGCLVQAGGSLRLSCAASGLIFRLYAMGWYRQAPGKERELVAAISVSGAITYYADSVKGRFTISRDKAKNTVYLQMNSLKPEDTAVYYCNAEAVFGRDGYVYWEVDYWGQGTQVTVSS
polyreactivity (PSR sort gate): low polyreactivity

QVQLVESGRGLVQAGGSLRLSCASSGSIKQNAMGWNRQAPGKETELVAAIDWDGSSTYYADSVKGRFTISRDNAKNTVYLQMNSLKPEDTAVYYCAKGWYRIKRNDYWGQGTQVTVSS
polyreactivity (PSR sort gate): low polyreactivity

QVQLVESGGGLVQAGGSLRLSCAASGSIFDYNTMGWYRQAPGKERELVAAISSNGGSTYYADSVKGRFTISRDNAKNTVYLQMNSRNPEDTAVYYCAVSIYVYHLDLEYWGQGTQVTVSS
polyreactivity (PSR sort gate): low polyreactivity

QVQHVESGGGLVQAGGSLRLSCAASGIIITGNAMGWYRQAPGKERELVAAISTSGGRTYYADSVKGRFTISRDNAKNTVYLQMNSLKPEDTAVYYCAADDLSGTELYYWGQGTQVTVSS
polyreactivity (PSR sort gate): high polyreactivity

QVQLVESGGGLVQAGGSLRLSCAASGFTFAYYVMGWYRQAPGKERELVAAITRSGDITSYADSVKGRFTISRDNAKNTVYLQMNSLKPEDTAVYYCNARLGYQSRRYNYWGQGTQVTVSS
polyreactivity (PSR sort gate): high polyreactivity

QVQLVESGGGLVQAGGSLRLSCAASGSTFRYYAMGWYRQAPGKERELVASISSGGSTNYADSVKGRFTISRDNAKNTVYLQMNSLKPGDTAVYYCNADSWTVNRRYYYYRYEYWGQGTQVTVSS
polyreactivity (PSR sort gate): low polyreactivity

QVQLVESGGGLVQAGGSLRLSCAASGRIFGYYTMGWYRQAPGKERELVAAINGRGTSTYYADSVKGRFTISRDNAKNTVYLQMNSLKPEDTAVYYCAADGYTRADDYWGQGTQVTVSS
polyreactivity (PSR sort gate): high polyreactivity

QVQLVESGGGLVQAGGSLRLSCAASGRLFKIYAMGWYRQAPGKERELVATISSGGRTNYADSVKGRFTISRDNAKNTVYLQMNSLKPEDTAVYYCNAGARVLYETESFDYWGQGIQVTVSS
polyreactivity (PSR sort gate): low polyreactivity

QVQLVESGGGLVQAGGSLRLSCAASGNSFSQYAMGWYRQAPGKERELVATISKSSGSTYYADSVKGRFTISRDNAKNTVYLQMNSLKPEDTAVYSCNAVSSDVYHHLGVLFFSTWYDYWGQGTQVTLSS
polyreactivity (PSR sort gate): low polyreactivity

QVQLVESGGGLVQAGGSLRLSCAASGFTSRTYAMGWYRQAPGKERELVAAITFSGGSTYYADSVKGRFTISRDNAKNTVYLQMNSLKPEDTAVYYCARDGLWYNAIWEYDYWGQGTQVTVSS
polyreactivity (PSR sort gate): high polyreactivity

QVQLVESGGGLVLAGGRLRLSCAASGRNFYGYAMGWYRQAPGKERELVAAISYGGGSTYYADSVKGRFTISRDNAKKTVYLQMNSLKPEDTAVYYCNDFSAYMGQYGYWGQGTQVTVSS
polyreactivity (PSR sort gate): high polyreactivity

QVQLVESGGGLVQAGGSLRLSCAASGRIFDQYALGGSRQAPGKERELVAAITSGGSTYYADSVKGRFTISRDNAKNTVYLQMNSLKPEDTAVYYCAAEWQWYGYVLYKYYYWGQGTQVTVSS
polyreactivity (PSR sort gate): high polyreactivity

QLQLVESGVGLVQAGGSLRLSCAASGSILPVYPMGWYRQAPGKERELVAAISVSGGSTSYADSVKGRFTISRDNAKNTVYLQMNSLKPEDTAVYYCAARYRYSYGYWGQGSQVTVSS
polyreactivity (PSR sort gate): high polyreactivity

QVQLVESGGGLVQAGGSLRLSCAASGRTFTYYAMGWYRQATGKERELVAAISRGGGSTHYADSVKGRFTISRDNAKNTVYFQMNSLKPEDTAVYYCAARYSTRYKYDYWGQGTQVTVSS
polyreactivity (PSR sort gate): high polyreactivity

QVQLVESGGGLVQAGGSLRLSCAASGFTVWLYAMGWYRQAPGKEREFVAAISTSGGSTYADSVKGRFTISRDNAKKTVYLQMNSLKPEDTAVYYCAADDLPSTGYDYWGQRTQVTVSS
polyreactivity (PSR sort gate): low polyreactivity

QVQLVESGGGLVQAGGSLRLSCAASGSIFVFYAMGWYRQAPGKERELVAAISSVGSTYYADSVKGRFTISRDNAKNTVYLQMNSLKPEDTAVYYCAAVTYYSGYYWGQGTQVTVSS
polyreactivity (PSR sort gate): low polyreactivity

QVQLLDSGGGLVKAGGILRLSCAASGRTFGRYAMGCYRQSPGKERELVATISSRGGNAYYAESVKGRFTISRDNAKNTVYFQMNSLKPEYTGVYYCEAQTYKCYDWRQGTQVTVSS
polyreactivity (PSR sort gate): high polyreactivity

QVQLVQSGGGIVQAGGSLRLSCAAYGITFGRNNMGWDRQAPGKERELVAALDSGGNTYADSVKGRFTISRDNAKQTVYVQMNSLKPEDTAVYDCAVDGGEFSSYGYWGQGTQVTVSS
polyreactivity (PSR sort gate): low polyreactivity

QVQLVESGGGLVQAGGSLRLSCAASGFIFASNAMGWYRQAPGKERELVAAITRSGGITYYADSVKGRFTISRDNAKNTVYLQMNSLKPEDTAVYYCNKGRRTKNSAYYDYWGQGTQVTVSS
polyreactivity (PSR sort gate): high polyreactivity

QVQLVESGGGLVQAGGSLRLSCAASGRIFAPNAMGWYRQAPGKEREFVASIRWNGGSTYYADSVKGRFTISRDNAKNTVYLQMNSLKPADTAVYYCAARGWGYRRNYVYAWYDYWGQGTQVTVSS
polyreactivity (PSR sort gate): high polyreactivity

QVQLVESGGGLVQAGGSLRLSCAASGFTFRYNAMGWYRQAPGKERELVAAITYRGGSTYYADSVKGRFTISRDNAKNTVYLQMNSLKPEDTAVYYCAAVGDLWGYYWGQGSQVTVSS
polyreactivity (PSR sort gate): low polyreactivity

QVQLVESGGGLVQAGGSLRLSCAASGRTLSLYAMGWYRQAPGKERELVATISKSGGSTDYADSVKGRFTISRDNAKNTVYLQMNSLKPEDTAVYYCAADANSWFTSYQVYGSEFDYWGQGTQVTVSS
polyreactivity (PSR sort gate): low polyreactivity
